Values quoted from earlier work in article PMC4321873.

Target: Glu286 (UniProt position 286, FFGHPEVYIIV)
Assay: kinetics

## Cytochrome c oxidase (aa3-type), subunit I (Rhodobacter sphaeroides)
  pKa: ∼9.4
